Assay results: article doi:10.1101/2021.12.07.471597 (bioRxiv, 2021)

Key:
VHH72.66-Fc = VHH72.66-Fc (llama); test: BLI
VHH72.71-Fc = VHH72.71-Fc (llama); test: BLI
VHH72.76-Fc = VHH72.76-Fc (llama); test: BLI
VHH72.6-Fc = VHH72.6-Fc (llama); test: BLI
VHH72-Fc = VHH72-Fc (llama); test: BLI
VHH72.65-Fc = VHH72.65-Fc (llama); test: BLI
[1] = target: biotinylated SARS-CoV-2 RBD (Wuhan) (SARS-CoV-2, UniProt P0DTC2, biotin); test: flow cytometry on cells

Measured: binding result

B1: SARS-CoV-1 RBD (domain or fragment)
chain: not shown
not listed: [1]
binds: all other assays above

B2: VHH72 displayed on yeast (VHH)
VHH: QVQLQESGGGLVQAGGSLRLSCAASGRTFSEYAMGWFRQAPGKEREFVATISWSGGSTYYTDSVKGRFTISRDNAKNTVYLQMNSLKPDDTAVYYCAAAGLGTVVSEWDYDYDYWGQGTQVTVSS
binds: [1]
